# Assay results reported in the DeepSol protein solubility set.
# Assay: soluble on expression in E. coli; label from the status in PepcDB or PDB records
row,Sequence,soluble on expression in E. coli
1,MSLNSLPKNIAIYTRVSTEKQDSNNSKANQLESIKQYINNQGWSDVPYEIYSDTQSASITSNSLNMYNDSDTMNPSIFLRDGLRRLIYDANYKKFDKLIVYSHDRLSRDIYEGLLIKHTLKKLNIDILYSKAGEQINSENQSINNFFENMLSNIAALESSIIGGRVLIGNRHNILNNIWAGGPAPYGYKLIALPSNRKKSKLSIYAPEARVVKKIFELYTTGYTPKDIVQFIKSEYSYNKDRLWTINSIKSILNNPVYTGTMVWNKKGGKRNPRKHPIDEYVYSKFDENIRIIDEKLWKKSLNIRKLQDENPKFLSEGHHHHHH,soluble
2,MSLNTRQLLSVGIDIGTTTTQVIFSRLELVNRAAVSQVPRYEFIKREISWQSPVFFTPVDKQGGLKEAELKTLILEQYHAAGIEPESVDSGAIIITGESAKTRNARPAVMALSQSLGDFVVASAGPHLESVIAGHGAGAQTLSEQRLCRVLNIDIGGGTANYALFDAGKISGTACLNVGGRLLETDSHGRVVYAHKPGQMIVDECFGAGTDARSLTGAQLVQVTRRMAELIVEVIDGTLSPLAQALMQTGLLPAGVTPEIITLSGGVGECYRHQPADPFCFADIGPLLATALHDHPRLREMNVQFPAQTVRATVIGAGAHTLSLSGSTIWLEGVQLPLRNLPVAIPIDETDLVGAWQQALIQLDLDPKTDAYVLALPASLPVRYAAVLTVINALVDFVARFPNPHPLLVVAGQDFGKALGMLLRPQLQQLPLAVIDEVIVRAGDYIDIGTPLFGGSVVPVTVKSLAFPSEGHHHHHH,soluble
3,MSLNVDLHCHSTASDGALSPSVLVARAHEHGVQALALTDHDTLEGLPEARQACVDLGMRWVSGVELSCTWGGATIHVLGYDFPLDAPPLLAAIQALHHGRWLRAEEIDRRLAAKGMPGTLEGARAVQHELGDSGNAPARPHFAEYLVRAGHVKDRGEAFRKWLGAGKLGDVKQHWPTLDETVATLRQSNAWVSLAHPMHYDLTRSKRRRLIADYIQAGGQALEVVNGMMPAEQVGTMSILAREFGLLASAGSDFHGPGTWGEIGAYRPLPEDLPPLWRRFSHEEGHHHHHH,soluble
4,MSLNVNFFVTCIGDALKSRMARDSVLLLEKLGCRVNFPEKQGCCGQPAINSGYIKEAIPGMKNLIAALEDNDDPIISPAGSCTYAVKSYPTYLADEPEWASRAEKVAARMQDLTSFIVNTLGVVDVGASLQGRAVYHPSCSLARKLGVKDEPLTLLKNVRGLELLTFAEQDTCCGFGGTFSVKMAEISGEMVKEKVAHLMEVRPEYLIGADVSCLLNISGRLQREGQKVKVMHIAEVLMSREGHHHHHH,not soluble
5,MSLNYEGRVLVVDDVNDIRMLVGHMVQNSGLKVEYGRNGLEALDKVTDAINDGDPYDLVLIDIHMPVMNGSEAIKQIRSSGIHFPVVAMTAATMKGVRDQLISQGFTNVLEKPINHDALLKVLDAHLTAVSEPIQVETTDAHDNDASQQDESSERQHFLLVEDDVDAADITALLLESLGIDVHVAHSGQECMDVFNQRNDWSKVLMDLNLPDASGLNLAKEIHKTSPQLELVLLSGEEPDAQSMADADITKFILKPINKKVLSDLVEEGHHHHHH,soluble
6,MSLNYLMKEKYIGLHKFELDTPCLVIDYEKLKHNLEIMQQHGFTWGIGIRPHCKTHKCTQIARLQLEYGAIGISAAKLSEAAALVSKRITNVLITSLIVSEAKYSRLFNCLKSAPDLMLVVDDKDNIRMLNKLGKSLNQPVHVLLDIDSGIGRTGINPEAALEYGHFINGMNWLKLKGIQCYAGHLQHIQNYEERKAFSLQVMEMASRIVKSFRDANLPCEILTGTGTGTFDIDVEASEVTEIQPGSYAVMDVEYGSIGSKNNPSSFQLFKNSMTLLTSVISSNRREHATVDAGTKSIYVDPHHKPHIISHPGLVYDWGGFGDEHGKVFSCEGGSHFLQNGDVLEIIVPHCDPTINLYDKFYITENNVVVDIWDIDMRGKSEGHHHHHH,soluble
7,MSLNYTTQMDAAKKGIITKEMQVVSEKEGINIETLMNLMAEGKIVIPANKNHKSISAEGVGQGLRTKINVNLGISKDCANIELELEKVKKAIDMNAESIMDLSNYGKTYDFRKRLVEVSTAMIGTVPMYDVVGFYDKELKDITVDEFFEVVEKHAKDGVDFVTIHAGLNRETIETFRRNKRLTNIVSRGGSLLFAWMELNNRENPFYEYFDRLLDICEKYDLTLSLGDACRPGSIADATDAVQIKELITLGELTKRAWERNVQVIIEGPGHMAMNEIEANVLLEKKLCHGAPFYVLGPIVTDIAPGYDHITSAIGGAMAASYGADFLCYVTPAEHLRLPNLEDVREGIVATKIAAHAADIAKGISGARDIDNKMSDARKRLDWDEMFSLAIDSEKAIRYRKESTPEHKDSCTMCGKMCSIRNMNKILEGKDINLLREGHHHHHH,soluble
8,MSLPIDEHVNAVKTVVVPAAGLGTRFLPATKTVPKELLPVVDTPGIELIAAEAAELGATRLAIITAPNKAGVLAHFERSSELEETLMERGKTDQVEIIRRAADLIKAVPVTQDKPLGLGHAVGLAESVLDDDEDVVAVMLPDDLVLPTGVMERMAQVRAEFGGSVLCAVEVSEADVSKYGIFEIEADTKDSDVKKVKGMVEKPAIEDAPSRLAATGRYLLDRKIFDALRRITPGAGGELQLTDAIDLLIDEGHPVHIVIHQGKRHDLGNPGGYIPACVDFGLSHPVYGAQLKDAIKQILAEHEAAERIADDSQVKLEHHHHHH,soluble
9,MSLPLPKAELHLHIEGTLEPELAFALAARNGVPLPYAHTDELRKAYQFDDLQSFLNLYYELMAVLRTEQDFEDLANAYLPRAAAQGVRHAEIFFDPQAHIARGVAMGTVVEGLWRALGRSTENHGVSTQLIMCFLRDESAESALETLEAAKPYLDRIIGIGLDSAEVGHPPAKFREVYEAAAALGLRRVAHAGEEGPPEYITEALDVLGVERIDHGLRCMEDDALVERLVRERVPLTLCPLSNVRLRAVDVLAEHPLPAMLDAGLLCTVNSDDPAYFGGYVADNFHAVRDALGLDQERMRELARNSFVASFLEHDEERRARYLAEVEAYDFPGEGHHHHHH,soluble
10,MSLPQFSVDLCLFDLDGTIVSTTTAAESAWKKLCRQHGVDPVELFKHSHGARSQEMMKKFFPKLDNTDNKGVLALEKDMADNYLDTVSLIPGAENLLLSLDVDTETQKKLPERKWAIVTSGSPYLAFSWFETILKNVGKPKVFITGFDVKNGKPDPEGYSRARDLLRQDLQLTGKQDLKYVVFEDAPVGIKAGKAMGAITVGITSSYDKSVLFDAGADYVVCDLTQVSVVKNNENGIVIQVNNPLTRDEGHHHHHH,soluble
11,MSLPVKNLRHLPKAHLHLHLEGAMRPATLTEFCERYKIKRPSDTRGKQFSNFAAFNEVYRAASDSIRTRQDLARVIQEVAEDAAKDGATWIEPAFDADRYTVLRADKSLRLFETPYEGWLFALKAARNASEKTGVGISFISAIDRTRPIDQANERAKLTTNLIASQKHQITAKNINGGEPYAGIIGLGLHGNEEGYPPEIFAEAFQIVTKKTEALSIPHAGEIAPTPGKGPESVEKAIDILSASRIQHGVLAIQDEVLIEKIKEKNICLDVCPSSNIQLSVFPNIQAHPLPLLIESGVSCSLGSDDPLLFGPSLLDEFELCREQMRLSDNTLAQLARNSFKYSGAPKKIVEQGLRDIDTWLNEGHHHHHH,soluble
12,MSLQDSLFQTETGFQPLAARMRPTSLEGYVGQAHLVGPGKPLRRAVEQGQLHSMILWGPPGVGKTTFARLLANVGDLSFETISAVLSGVKEIREVVERARNRKQSQGRDTLLFVDEVHRFNKSQQDAFLPHIEDGTFIFVGATTENPSFELNSALLSRTRVYVLKNLEAADIRRLLDSALESEQGFAGQLRVEESVLATMAEASGGDARRALNILEVAADLAEPDDDGNNRVTAQTLEQVLQTSLRRFDKGGDVFYDQISALHKSVRGSNPDGSLYWLCRMLDGGCDPLYVARRLVRIASEDIGNADPRALQITLQAWDAQERLGSPEGELALAQAVTYLALAPKSNAVYKAYNQCIADIRSDPDYEVPVHLRNAPTKLLKSMGHGEEYRYAHDEPDAYAAGEAYLPEAIYQRRYYQPVQRGLEIKLAEKRERLDSLDANSPKKREGHHHHHH,soluble
13,MSLQICQGNGEFVHLLENSKGSPESFASAYSQSMRLTNGEFLCYHISTDYKSISFYNFKNASDGRTIIIHLPAKLMHEHHTLVVEEQEGVIVVDVILESSAFLTMRLPLEYIFGIENVLDDNWLSMQSPYDFTVRRPHLLHKVSQDFFVVFLEDGGLLGLRQHNENYLEPLLFNDYSYIQTLTSMFSRKKKQPADRAVACLVIHDKYLVVLTRLCHLKIWDLGSFHLVQEYNLTENFNGTLETIEYESNGNYISTLNDVIVIYLPIGNGVFKFGRLSFTNDGERKPTFNMFSSIDANMKKSTIWSFVDMKLTDPLELNFTSTTFNLIILWKSGSNSKLQILNIKDSSFSDFEWIEASNKSLQNFQTEEISALIQNYDFDKALYKLKSHYSDMTFKEADSLLLANNIVYSENNETQQQQYLANLDTLLRDINNNHSEIASFTIYKNDMILVNTHNLYNHGFYKINSSLENIYFNLSEITEGHHHHHH,soluble
14,MSLQIVFPTPNQVEMQTGNLILGKKVSMYAEDTTAFYLNLFREEVLSHTPIKWQKKESKADICWITDSSLPPEGYRIKIHPQQMVISASDKGGFTYAVQTLRQWVAGSAGSITFACASVTDYPRTQWRCFLLDSGRQFQKITTIRKYIDMASLLKMNYFHWHLTEGLGWRIEIKQYPHLTRTGGSVGKGEEQQGFYTQEEIRDIIEYARQRNITIVPEIDMPGHAEAALSAYPELGCFGLPVEIPQSGFTQNIFCAGKDGTLRFLKNVLDEVCALFPSPYIHLGGDEAPKGNWDQCPDCRKRITTEGLKDSHDLQLWFSAQMANYLKSKGRKAIFWGDVVYHDGYPLPDNTVIQWWNYRGHKDLALRNAVKHHYPVICSSNYYTYLNFPVTPWKGYTEARTFDLKDVYLNNPSDKAISEKNPLILGMSCALWTDDGVTERMIDRRLFPRILALSEQMWHEGEALDFDRFYRNILHRKAWFEEAGFEFGPALKEDVTKDYKWDEGHHHHHH,soluble
15,MSLQKLAVFDFDSTLVNAETIESLARAWGVFDEVKTITLKAMNGETDFHKSLILRVSKLKNMPLKLAKEVCESLPLFEGALELVSALKEKNYKVVCFSGGFDLATNHYRDLLHLDAAFSNTLIVENDALNGLVTGHMMFSHSKGEMLLVLQRLLNISKTNTLVVGDGANDLSMFKHAHIKIAFNAKEVLKQHATHCINEPDLALIKPLIEGHHHHHH,soluble
16,MSLQMDQYLAQPLMIQEAQLVTIASGTTLSRELAQLTEQAWIQDSFVAEWVRRFHPELSKIKAGTYKLQPDMSLEQALALLVSGKEHQFSITFVEGSRFQEWRDILASNENITQQLTGLTEIDIAKALGIEHEKLEGLFLAETYHFTKGTSDVEILKRANQKLEKFLQVTWEHRQEGLPIQTPYEALILASIIEKETSIAEERERIAAVFINRLNKRMRLQTDPTVIYGMGETYDGNIRKKDLRARTPYNTYVINGLPPTPIAMPGEASIYAALNPEQSDYLYFVASGEGGHNFSKTLADHNRAVRAYLKKLRTKQEGHHHHHH,soluble
17,MSLQQGDRVPAGLTLTNQAGESFRIGDYRGQTLVLTFIYTRCPLPTYCPLMSKQFAALQPQLRERYGEEAQLLSISFDPAYDTPQVLREYASKYTDRLDTWTFATGDSSQVERATGLFGVHAQKTGSEEITHNLTTALIGSEGHVRRLWRGNDWTPEDVRQAVAQVAEASEGHHHHHH,soluble
18,MSLQRLNVEFRSEGVALRGWLYLPEARAERPAIVMTHGFSGVKEQYLDRYAEVFAAAGFVVLLYDHPNFGDSDGEPRQEIDPVMQRRGYRDAITWLGAQARVDASRIGIWGTSYSGGHVLEVAALDRRVKCVVAQVPTVSGHASALRRTRAEQLPALLASFDADRQRRFEGLPPALLPAVAASPDEPCAMAGADAHRFFTDSAALAPNWCNRVTLRSAELARENEPGIHIGRISPTPLLMIVADRDLLTPTDLCLEAYQRALPPKRLLMLAGGHFTPYIEHFDATSQAAADWFVRHLGEGGEQPATVVEEGGSHHHHHH,soluble
